Reference: patent publication US9012217B2, “Benzimidazole compounds differentiate a mammalian stem cell into mesodermal or cardiomyocyte cells” (Burnham Institute for Medical Research, priority 2008, dated 2015)

Experiments:
[1] = tested on: CGR8 mESCs stably transfected with eGFP under control of the alpha myosin heavy chain (aMHC) promoter; assay: cardiomyocyte screening assay (aMHC-eGFP mESC differentiation, imaging); format: cell-based, mouse; settings: structure IIA; activity relative to compound 28 = 100%
Experimental: The primary screen is conducted with CGR8 mESCs stably transfected with eGFP under control of the alpha myosin heavy chain (aMHC) promoter (Takahashi, et al., Circulation, 107(14):1912, 2003). The bioassay is run essentially as described (Bushway et al., Methods Enzymol, 414:300, 2006). Briefly, cells were seeded onto Greiner 384 well microclear bottom microtiter plates in ½ well volume at a density of ˜229 cells/mm2. […]
The optimal time to stop the differentiation is empirically determined to be at day 9 of differentiation, when cardiomyocytes appear in positive control cultures that have higher density cells or culture the cells in embryoid body (not monolayer) culture. […] Image quantification is done using a simple image subtraction routine that subtracted the red channel images from the green (eGFP) channel images to remove background signal from the eGFP images. […]
Follow-up confirmations and testing of hits for SAR were performed on the Hamilton STAR fluid handler with integrated Kendro Cytomat plate hotel and Kendro Cytomat plate incubators using the Hamilton STAR liquid handler robot. […] Image quantification is performed on captured TIFF images using the Developer Toolbox (GE/Amersham) with custom algorithms. […]

mESC = assay: serum-free mESC cardiac differentiation assay (day 2 to day 4 exposure); format: cell-based, mouse; settings: added alone, day 2 to day 4, serum free
Experimental: To define the point of action in more detail, a more focused assay is designed to probe the activities of the compounds between days 2-4 of differentiation. Of note is that the original assay is performed in the presence of serum, which activates many pathways that obscure the targets of the small molecules. Since serum activates many pathways and many genes, its presence confounds analysis of downstream targets. Thus, a serum-free mESC cardiac differentiation assay is set up to more precisely validate the activity of the compounds and determine if they acted independently or synergized with a known inducer. The refined assay, diagrammed in FIG. 4, tested the ability of the small molecules to stimulate mesodermal differentiation from day 2 to day 4. Differentiation is initiated by aggregating mESC into embryoid bodies (EBs) in serum free conditions. Day 2 EBs were dispersed in the presence of growth factors or small molecules to allow maximal exposure. Cells were allowed to re-aggregate into EBs until day 4 when they were dispersed and plated in conducive conditions for cardiac differentiation to day 9, at which point eGFP is imaged and quantified by the algorithm described above.
FIG. 5 summarizes experiments showing synergy with Activin/Nodal signaling.

COc1nnc(Nc2ccc3c(c2)ncn3C2CC2)c2ccccc12 [Compound 104]
Activity [1]: INACTIVE

B1: Activin A (protein, UniProt P08476 311-426, looked up)
Inhibin beta A chain: GLECDGKVNICCKKQFFVSFKDIGWNDWIIAPSGYHANYCEGECPSHIAGTSGSSLSFHSTVINHYRMRGHSPFANLKSCCVPTKLRPMSMLYYDDGQNIIKKDIQNMIVEECGCS
notes: "an inducer of anterior mesoderm and endoderm"
cardiogenesis (cardiomyocytes at day 9) (mESC): efficient cardiogenesis

B2: BMP4 (protein, UniProt P12644 293-408, looked up)
Bone morphogenetic protein 4: SPKHHSQRARKKNKNCRRHSLYVDFSDVGWNDWIVAPPGYQAFYCHGDCPFPLADHLNSTNHAIVQTLVNSVNSSIPKACCVPTELSAISMLYLDEYDKVVLKNYQEMVVEGCGCR
notes: "posteriorizing growth factors such as BMP4"
cardiogenesis (cardiomyocytes at day 9) (mESC): does not
